Measurements taken from publication PMC9474507.

Experiments:
[1] = target: pre-formed corona layer (proteins of 10% mouse serum pre-adsorbed on L-NPs) (mouse (endogenous in serum)); experiment: BLI; L-NPs loaded on human IgG-coated AR2G biosensors, immersed in 10% mouse serum (300 s in the methods, 3 min in the text) and rinsed with water; association 300 s with 6.25-100 nM HSA or IgG, dissociation 600 s in buffer; 30 °C, 1000 rpm; 1:1 model
[2] = target: Albumin purified from human serum (human) (UniProt P02768); experiment: BLI; HSA pre-coated on L-NPs
[3] = target: Immunoglobulin G purified from human serum (human) [IgG part: P01857]; experiment: BLI; IgG pre-coated on L-NPs

| Substance | Kd [1] | Kd [2] | Kd [3] |
| --- | --- | --- | --- |
| Albumin purified from human serum (from UniProt P02768 25-609) (natural protein) | 32.5 nM | – | – |
| Immunoglobulin G purified from human serum (antibody) | 1.2 nM | – | – |
| Immunoglobulin G purified from human serum (from UniProt P01857) | – | < 1 pM | 5.1 nM |
